We go through 4 sequences from patent US10562947B2, “Compositions and methods for preventing or treating diseases, conditions or processes characterized by aberrant fibroblast proliferation and extracellular matrix deposition” (MOERAE MATRIX, INC., priority 2011, dated 2020).

Common to all, as to experiment: Kinase Profiling Assay
Format in all cases: biochemical
Holding throughout (details): 100 μM peptide

Assay [1] has as its target T1, Ron(h) (Homo sapiens, UniProt Q04912).
T1 construct: purchased Millipore (IC50 Profiler Express service)
A digest of the protocol:
(§1)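 First, MK2 inhibitor peptides were applied to a panel of 266 human kinases; then each kinase's activity was measured in duplicate to assess off-target inhibition.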

Assay [2] concerns the target T2, SGK3(h) (Homo sapiens, UniProt Q96BR1).
T2 sequence (Q96BR1 1-496): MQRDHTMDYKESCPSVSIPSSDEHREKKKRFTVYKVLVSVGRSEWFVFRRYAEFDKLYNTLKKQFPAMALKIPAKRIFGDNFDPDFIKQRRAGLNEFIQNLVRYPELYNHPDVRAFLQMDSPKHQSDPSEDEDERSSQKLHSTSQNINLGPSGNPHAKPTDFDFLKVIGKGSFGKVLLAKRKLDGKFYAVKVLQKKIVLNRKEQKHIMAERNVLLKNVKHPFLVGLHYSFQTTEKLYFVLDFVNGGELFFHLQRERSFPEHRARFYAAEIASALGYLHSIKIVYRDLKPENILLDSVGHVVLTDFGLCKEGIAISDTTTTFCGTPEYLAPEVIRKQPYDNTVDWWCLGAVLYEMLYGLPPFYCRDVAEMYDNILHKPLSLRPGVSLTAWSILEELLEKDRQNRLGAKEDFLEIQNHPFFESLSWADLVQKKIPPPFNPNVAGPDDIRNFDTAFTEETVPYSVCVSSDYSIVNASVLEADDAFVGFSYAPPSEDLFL
The gist of the method:
as §1

For assay [3], the target named is T3, ULK2(h) (Homo sapiens, UniProt Q8IYT8).
T3 sequence (Q8IYT8 1-1036): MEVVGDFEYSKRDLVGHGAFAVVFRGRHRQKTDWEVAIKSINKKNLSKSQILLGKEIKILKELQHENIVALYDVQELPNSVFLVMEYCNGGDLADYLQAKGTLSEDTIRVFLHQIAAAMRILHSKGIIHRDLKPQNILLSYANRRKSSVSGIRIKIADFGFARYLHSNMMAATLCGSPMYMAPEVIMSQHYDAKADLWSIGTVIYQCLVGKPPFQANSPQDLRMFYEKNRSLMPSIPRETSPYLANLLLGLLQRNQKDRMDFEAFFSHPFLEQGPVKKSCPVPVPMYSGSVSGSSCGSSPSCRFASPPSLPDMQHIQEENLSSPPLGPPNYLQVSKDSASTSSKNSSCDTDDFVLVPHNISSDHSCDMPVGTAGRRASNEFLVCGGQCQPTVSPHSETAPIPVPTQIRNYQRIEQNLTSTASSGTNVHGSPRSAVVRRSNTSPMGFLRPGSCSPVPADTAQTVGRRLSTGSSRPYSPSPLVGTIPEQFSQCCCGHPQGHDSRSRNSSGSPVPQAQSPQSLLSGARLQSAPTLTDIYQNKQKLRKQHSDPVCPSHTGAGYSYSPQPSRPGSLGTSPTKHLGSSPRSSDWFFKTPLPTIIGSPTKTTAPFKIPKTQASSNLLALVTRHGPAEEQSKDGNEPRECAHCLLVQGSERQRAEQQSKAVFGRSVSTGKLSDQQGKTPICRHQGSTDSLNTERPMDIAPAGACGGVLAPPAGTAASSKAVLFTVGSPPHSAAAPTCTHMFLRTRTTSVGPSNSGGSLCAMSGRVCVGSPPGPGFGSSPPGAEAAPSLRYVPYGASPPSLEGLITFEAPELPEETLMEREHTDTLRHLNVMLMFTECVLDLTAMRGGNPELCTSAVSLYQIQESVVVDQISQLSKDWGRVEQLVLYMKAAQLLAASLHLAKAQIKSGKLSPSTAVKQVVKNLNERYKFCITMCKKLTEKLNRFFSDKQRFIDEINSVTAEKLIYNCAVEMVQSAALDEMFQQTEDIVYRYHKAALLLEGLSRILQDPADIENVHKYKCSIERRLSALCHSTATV
The gist of the method: as §1

The target of assay [4] is T4, TAO1(h) (Homo sapiens, UniProt Q7L7X3).
T4 sequence (Q7L7X3 1-1001): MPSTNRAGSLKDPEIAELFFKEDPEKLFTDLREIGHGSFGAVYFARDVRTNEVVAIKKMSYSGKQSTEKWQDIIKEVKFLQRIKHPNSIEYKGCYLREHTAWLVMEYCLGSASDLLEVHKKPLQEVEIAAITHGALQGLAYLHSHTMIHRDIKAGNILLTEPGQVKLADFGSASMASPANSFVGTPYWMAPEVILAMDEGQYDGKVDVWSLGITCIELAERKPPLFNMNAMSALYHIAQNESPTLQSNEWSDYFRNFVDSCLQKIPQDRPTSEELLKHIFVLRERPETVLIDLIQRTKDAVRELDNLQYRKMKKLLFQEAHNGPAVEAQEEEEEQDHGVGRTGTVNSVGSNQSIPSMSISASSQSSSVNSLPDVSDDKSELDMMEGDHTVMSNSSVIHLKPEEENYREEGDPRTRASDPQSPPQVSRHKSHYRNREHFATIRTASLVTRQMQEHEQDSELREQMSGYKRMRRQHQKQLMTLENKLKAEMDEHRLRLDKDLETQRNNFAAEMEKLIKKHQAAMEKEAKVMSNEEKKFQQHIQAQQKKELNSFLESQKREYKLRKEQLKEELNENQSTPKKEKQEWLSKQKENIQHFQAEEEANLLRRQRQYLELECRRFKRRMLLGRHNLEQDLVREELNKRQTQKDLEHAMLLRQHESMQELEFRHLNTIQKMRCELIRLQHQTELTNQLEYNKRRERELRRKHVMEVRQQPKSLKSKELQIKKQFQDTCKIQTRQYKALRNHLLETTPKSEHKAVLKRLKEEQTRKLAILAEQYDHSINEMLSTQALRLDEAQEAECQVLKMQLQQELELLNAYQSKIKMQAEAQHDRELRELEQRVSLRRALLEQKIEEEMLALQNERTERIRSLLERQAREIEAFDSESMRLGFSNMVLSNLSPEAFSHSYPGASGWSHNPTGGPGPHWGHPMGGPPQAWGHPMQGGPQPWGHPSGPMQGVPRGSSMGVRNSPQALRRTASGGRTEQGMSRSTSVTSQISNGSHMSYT
A digest of the protocol:
as §1

Regarding “YARAAARQARAKALNRQLGVA (Mammalian) [MMI-0200]”, the “Ron(h) % activity” value in assay [1] was determined as 120%. Also, in assay [2], the “SGK3(h) % activity” value is given as 58%. The “ULK2(h) % activity” value in assay [3] was 132%.

In the case of “HRRIKAWLKKIKALARQLGVAA (Mammalian) [MMI-0500]”, in assay [1], the “Ron(h) % activity” value worked out at 46%. The “SGK3(h) % activity” value in assay [2] is recorded as −3%. For the same sequence, the “TAO1(h) % activity” value in assay [4] was determined as 24%. In assay [3], the “ULK2(h) % activity” value is 124%.

For KAFAKLAARLYRKALARQLGVAA [MMI-0400], in assay [1], the “Ron(h) % activity” value came out at 79%. Also, the “SGK3(h) % activity” value in assay [2] stood at 8%. Besides, the “TAO1(h) % activity” value in assay [4] was 73%. The “ULK2(h) % activity” value in assay [3] was determined as 131%.

Consider FAKLAARLYRKALARQLGVAA [MMI-0300], for which, in assay [1], the “Ron(h) % activity” value was 93%. In assay [2], the “SGK3(h) % activity” value is recorded as 10%. Further, the “TAO1(h) % activity” value in assay [4] was 82%. For the same sequence, the “ULK2(h) % activity” value in assay [3] stood at 122%.
